In patent US20210238260:

B1: FIXa-K247N/N249S/R318Y/R338E/T343R/E410N (protein)
chain 1: YNSGKLEEFVQGNLERECMEEKCSFEEAREVFENTERTTEFWKQYVDGDQCESNPCLNGGSCKDDINSYECWCPFGFEGKNCELDVTCNIKNGRCEQFCKNSADNKVVCSCTEGYRLAENQKSCEPAVPFPCGRVSVSQTSKLTR
chain 2: VVGGEDAKPGQFPWQVVLNGKVDAFCGGSIVNEKWIVTAAHCVETGVKITVVAGEHNIEETEHTEQNRSVIRIIPHHNYNAAINKYNHDIALLELDEPLVLNSYVTPICIADKEYTNIFLKFGSGYVSGWGRVFHKGYSALVLQYLRVPLVDRATCLESTKFRIYNNMFCAGFHEGGRDSCQGDSGGPHVTEVEGTSFLTGIISWGEECAMKGKYGIYTKVSRYVNWIKNKTKLT
B2: FIXa-K247N/N249S/R318Y/T343R/R403E (protein)
chain 1: YNSGKLEEFVQGNLERECMEEKCSFEEAREVFENTERTTEFWKQYVDGDQCESNPCLNGGSCKDDINSYECWCPFGFEGKNCELDVTCNIKNGRCEQFCKNSADNKVVCSCTEGYRLAENQKSCEPAVPFPCGRVSVSQTSKLTR
chain 2: VVGGEDAKPGQFPWQVVLNGKVDAFCGGSIVNEKWIVTAAHCVETGVKITVVAGEHNIEETEHTEQNRSVIRIIPHHNYNAAINKYNHDIALLELDEPLVLNSYVTPICIADKEYTNIFLKFGSGYVSGWGRVFHKGYSALVLQYLRVPLVDRATCLRSTKFRIYNNMFCAGFHEGGRDSCQGDSGGPHVTEVEGTSFLTGIISWGEECAMKGKYGIYTKVSEYVNWIKEKTKLT
B3: FIXa-K247N/N249S/R318Y/T343R/R403E/E410N (protein)
chain 1: YNSGKLEEFVQGNLERECMEEKCSFEEAREVFENTERTTEFWKQYVDGDQCESNPCLNGGSCKDDINSYECWCPFGFEGKNCELDVTCNIKNGRCEQFCKNSADNKVVCSCTEGYRLAENQKSCEPAVPFPCGRVSVSQTSKLTR
chain 2: VVGGEDAKPGQFPWQVVLNGKVDAFCGGSIVNEKWIVTAAHCVETGVKITVVAGEHNIEETEHTEQNRSVIRIIPHHNYNAAINKYNHDIALLELDEPLVLNSYVTPICIADKEYTNIFLKFGSGYVSGWGRVFHKGYSALVLQYLRVPLVDRATCLRSTKFRIYNNMFCAGFHEGGRDSCQGDSGGPHVTEVEGTSFLTGIISWGEECAMKGKYGIYTKVSEYVNWIKNKTKLT
B4: FIXa-Y155F/K247N/N249S/R338E/T343R/R403E (protein)
chain 1: YNSGKLEEFVQGNLERECMEEKCSFEEAREVFENTERTTEFWKQYVDGDQCESNPCLNGGSCKDDINSYECWCPFGFEGKNCELDVTCNIKNGRCEQFCKNSADNKVVCSCTEGYRLAENQKSCEPAVPFPCGRVSVSQTSKLTR
chain 2: VVGGEDAKPGQFPWQVVLNGKVDAFCGGSIVNEKWIVTAAHCVETGVKITVVAGEHNIEETEHTEQNRSVIRIIPHHNYNAAINKYNHDIALLELDEPLVLNSYVTPICIADKEYTNIFLKFGSGYVSGWGRVFHKGRSALVLQYLRVPLVDRATCLESTKFRIYNNMFCAGFHEGGRDSCQGDSGGPHVTEVEGTSFLTGIISWGEECAMKGKYGIYTKVSEYVNWIKEKTKLT
B5: FIXa-K247N/N249S/R338E/T343R/R403E (protein)
chain 1: YNSGKLEEFVQGNLERECMEEKCSFEEAREVFENTERTTEFWKQYVDGDQCESNPCLNGGSCKDDINSYECWCPFGFEGKNCELDVTCNIKNGRCEQFCKNSADNKVVCSCTEGYRLAENQKSCEPAVPFPCGRVSVSQTSKLTR
chain 2: VVGGEDAKPGQFPWQVVLNGKVDAFCGGSIVNEKWIVTAAHCVETGVKITVVAGEHNIEETEHTEQNRSVIRIIPHHNYNAAINKYNHDIALLELDEPLVLNSYVTPICIADKEYTNIFLKFGSGYVSGWGRVFHKGRSALVLQYLRVPLVDRATCLESTKFRIYNNMFCAGFHEGGRDSCQGDSGGPHVTEVEGTSFLTGIISWGEECAMKGKYGIYTKVSEYVNWIKEKTKLT
B6: FIXa-Y155F/K247N/N249S/R318Y/T343R/R403E/E410N (protein)
chain 1: YNSGKLEEFVQGNLERECMEEKCSFEEAREVFENTERTTEFWKQYVDGDQCESNPCLNGGSCKDDINSYECWCPFGFEGKNCELDVTCNIKNGRCEQFCKNSADNKVVCSCTEGYRLAENQKSCEPAVPFPCGRVSVSQTSKLTR
chain 2: VVGGEDAKPGQFPWQVVLNGKVDAFCGGSIVNEKWIVTAAHCVETGVKITVVAGEHNIEETEHTEQNRSVIRIIPHHNYNAAINKYNHDIALLELDEPLVLNSYVTPICIADKEYTNIFLKFGSGYVSGWGRVFHKGYSALVLQYLRVPLVDRATCLRSTKFRIYNNMFCAGFHEGGRDSCQGDSGGPHVTEVEGTSFLTGIISWGEECAMKGKYGIYTKVSEYVNWIKNKTKLT
B7: FIXa-K247N/N249S/R318Y/T343R/E410N (protein)
chain 1: YNSGKLEEFVQGNLERECMEEKCSFEEAREVFENTERTTEFWKQYVDGDQCESNPCLNGGSCKDDINSYECWCPFGFEGKNCELDVTCNIKNGRCEQFCKNSADNKVVCSCTEGYRLAENQKSCEPAVPFPCGRVSVSQTSKLTR
chain 2: VVGGEDAKPGQFPWQVVLNGKVDAFCGGSIVNEKWIVTAAHCVETGVKITVVAGEHNIEETEHTEQNRSVIRIIPHHNYNAAINKYNHDIALLELDEPLVLNSYVTPICIADKEYTNIFLKFGSGYVSGWGRVFHKGYSALVLQYLRVPLVDRATCLRSTKFRIYNNMFCAGFHEGGRDSCQGDSGGPHVTEVEGTSFLTGIISWGEECAMKGKYGIYTKVSRYVNWIKNKTKLT
B8: FIXa-K247N/N249S/R338E/T343R/E410N (protein)
chain 1: YNSGKLEEFVQGNLERECMEEKCSFEEAREVFENTERTTEFWKQYVDGDQCESNPCLNGGSCKDDINSYECWCPFGFEGKNCELDVTCNIKNGRCEQFCKNSADNKVVCSCTEGYRLAENQKSCEPAVPFPCGRVSVSQTSKLTR
chain 2: VVGGEDAKPGQFPWQVVLNGKVDAFCGGSIVNEKWIVTAAHCVETGVKITVVAGEHNIEETEHTEQNRSVIRIIPHHNYNAAINKYNHDIALLELDEPLVLNSYVTPICIADKEYTNIFLKFGSGYVSGWGRVFHKGRSALVLQYLRVPLVDRATCLESTKFRIYNNMFCAGFHEGGRDSCQGDSGGPHVTEVEGTSFLTGIISWGEECAMKGKYGIYTKVSRYVNWIKNKTKLT
B9: FIXa-Y155F/K247N/N249S/R318Y/T343R/R403E (protein)
chain 1: YNSGKLEEFVQGNLERECMEEKCSFEEAREVFENTERTTEFWKQYVDGDQCESNPCLNGGSCKDDINSYECWCPFGFEGKNCELDVTCNIKNGRCEQFCKNSADNKVVCSCTEGYRLAENQKSCEPAVPFPCGRVSVSQTSKLTR
chain 2: VVGGEDAKPGQFPWQVVLNGKVDAFCGGSIVNEKWIVTAAHCVETGVKITVVAGEHNIEETEHTEQNRSVIRIIPHHNYNAAINKYNHDIALLELDEPLVLNSYVTPICIADKEYTNIFLKFGSGYVSGWGRVFHKGYSALVLQYLRVPLVDRATCLRSTKFRIYNNMFCAGFHEGGRDSCQGDSGGPHVTEVEGTSFLTGIISWGEECAMKGKYGIYTKVSEYVNWIKEKTKLT
B10: FIXa-Y155F/K247N/N249S/R338E/T343R/E410N (protein)
chain 1: YNSGKLEEFVQGNLERECMEEKCSFEEAREVFENTERTTEFWKQYVDGDQCESNPCLNGGSCKDDINSYECWCPFGFEGKNCELDVTCNIKNGRCEQFCKNSADNKVVCSCTEGYRLAENQKSCEPAVPFPCGRVSVSQTSKLTR
chain 2: VVGGEDAKPGQFPWQVVLNGKVDAFCGGSIVNEKWIVTAAHCVETGVKITVVAGEHNIEETEHTEQNRSVIRIIPHHNYNAAINKYNHDIALLELDEPLVLNSYVTPICIADKEYTNIFLKFGSGYVSGWGRVFHKGRSALVLQYLRVPLVDRATCLESTKFRIYNNMFCAGFHEGGRDSCQGDSGGPHVTEVEGTSFLTGIISWGEECAMKGKYGIYTKVSRYVNWIKNKTKLT
B11: FIXa-Y155F/K247N/N249S/R338E/E410N (protein)
chain 1: YNSGKLEEFVQGNLERECMEEKCSFEEAREVFENTERTTEFWKQYVDGDQCESNPCLNGGSCKDDINSYECWCPFGFEGKNCELDVTCNIKNGRCEQFCKNSADNKVVCSCTEGYRLAENQKSCEPAVPFPCGRVSVSQTSKLTR
chain 2: VVGGEDAKPGQFPWQVVLNGKVDAFCGGSIVNEKWIVTAAHCVETGVKITVVAGEHNIEETEHTEQNRSVIRIIPHHNYNAAINKYNHDIALLELDEPLVLNSYVTPICIADKEYTNIFLKFGSGYVSGWGRVFHKGRSALVLQYLRVPLVDRATCLESTKFTIYNNMFCAGFHEGGRDSCQGDSGGPHVTEVEGTSFLTGIISWGEECAMKGKYGIYTKVSRYVNWIKNKTKLT
B12: FIXa-Y155F/K247N/N249S/R318Y/T343R/E410N (protein)
chain 1: YNSGKLEEFVQGNLERECMEEKCSFEEAREVFENTERTTEFWKQYVDGDQCESNPCLNGGSCKDDINSYECWCPFGFEGKNCELDVTCNIKNGRCEQFCKNSADNKVVCSCTEGYRLAENQKSCEPAVPFPCGRVSVSQTSKLTR
chain 2: VVGGEDAKPGQFPWQVVLNGKVDAFCGGSIVNEKWIVTAAHCVETGVKITVVAGEHNIEETEHTEQNRSVIRIIPHHNYNAAINKYNHDIALLELDEPLVLNSYVTPICIADKEYTNIFLKFGSGYVSGWGRVFHKGYSALVLQYLRVPLVDRATCLRSTKFRIYNNMFCAGFHEGGRDSCQGDSGGPHVTEVEGTSFLTGIISWGEECAMKGKYGIYTKVSRYVNWIKNKTKLT

Molecular target: Factor X (FX), P00742
Sequence (P00742 whole entry, looked up): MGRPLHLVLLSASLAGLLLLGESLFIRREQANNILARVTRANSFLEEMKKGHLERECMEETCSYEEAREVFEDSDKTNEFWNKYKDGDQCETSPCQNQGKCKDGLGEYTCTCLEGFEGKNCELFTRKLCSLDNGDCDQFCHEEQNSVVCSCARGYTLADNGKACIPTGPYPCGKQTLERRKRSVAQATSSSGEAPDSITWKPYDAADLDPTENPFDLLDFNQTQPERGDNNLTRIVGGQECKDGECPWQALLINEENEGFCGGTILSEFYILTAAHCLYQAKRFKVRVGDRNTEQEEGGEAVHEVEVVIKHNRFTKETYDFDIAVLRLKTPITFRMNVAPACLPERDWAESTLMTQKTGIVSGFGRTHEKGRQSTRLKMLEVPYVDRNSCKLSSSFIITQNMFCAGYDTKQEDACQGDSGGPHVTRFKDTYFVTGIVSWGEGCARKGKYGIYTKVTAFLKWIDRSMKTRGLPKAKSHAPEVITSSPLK

Row | Protein | % of WT kcat/KM | KM | kcat (s^-1) of FX activation by FIXa variant in the Xase complex (FVIIIa, PC/PS vesicles, Ca2+), fluorogenic FXa read-out | kcat/KM for FX activation (Xase: FVIIIa, PC/PS vesicles, Ca2+) | catalytic activity (kcat/KM) for activation of FX
1 | B1 | 687% | 0.0328 µM | 8.8 s⁻¹ | 3.2e+08 M⁻¹ s⁻¹ | 
2 | B2 | 84% | 0.105 µM | 3.7 s⁻¹ | 3.9e+07 M⁻¹ s⁻¹ | 
3 | B3 | 279% | 0.0805 µM | 9.5 s⁻¹ | 1.3e+08 M⁻¹ s⁻¹ | 
4 | B4 | 1269% | 0.0251 µM | 14.6 s⁻¹ | 5.9e+08 M⁻¹ s⁻¹ | 
5 | B5 | 1215% | 0.0263 µM | 14.6 s⁻¹ | 5.6e+08 M⁻¹ s⁻¹ | improved activity when combined with other mutations
6 | B6 | 350% | 0.0606 µM | 9 s⁻¹ | 1.6e+08 M⁻¹ s⁻¹ | 
7 | B7 | 439% | 0.0401 µM | 6.1 s⁻¹ | 2e+08 M⁻¹ s⁻¹ | 
8 | B8 | 676% | 0.0275 µM | 7.9 s⁻¹ | 3.1e+08 M⁻¹ s⁻¹ | 
9 | B9 | 276% | 0.0605 µM | 7.5 s⁻¹ | 1.3e+08 M⁻¹ s⁻¹ | 
10 | B10 | 391% | 0.027 µM | 4.8 s⁻¹ | 1.8e+08 M⁻¹ s⁻¹ | 
11 | B11 | 1009% | 0.0177 µM | 7.3 s⁻¹ | 4.7e+08 M⁻¹ s⁻¹ | 
12 | B12 | 668% | 0.0381 µM | 8.1 s⁻¹ | 3.1e+08 M⁻¹ s⁻¹ | 
